Measurements published in a protein production outcome set (Wang et al. 2014).

Assay: label from the status in PepcDB records

Row | Sequence | protein production
1 | MDFGTQGPQAPAELAWLRGVDAYTMGAYPQAEEEFRAAVRIDPTMADGWLGLHALRVDTTNALLRMFRNRDRFGEQRARHRRTLNSWYWLGWWVQPVLENPRDLLLAHASHWLDGRHVPELDRALAGLPPVDSDAQVRFLHACRAYLVKDWEQLVRHTDPLLGDPLLGIEAGLFSGMARVRLEMYGQAEPLLSAALMRCRSEQPQRKELRYWLARAHEGTGRSAAALPLYRAVHRVDPAFMDTSARLAAIAEGDGYDDPADLTGYAQAGAGTDGLDGLDPLFGTEERGVKVSAPEPALSAPLPPLGGPSVREKAGGPDPSLPSGPTDPALLEEALAELERMVGLEPVKRQVKALSAQLNMARLRAGQGLPVQPPKRHFVFSGPSGTGKTTVARILGRVFYALGLLGGDHLVEAQRADLVGEYLGQTAVKANELIDSALGGVLFVDEAYSLSNSGYGKGDAYGDEALQVLLKRAEDNRDHLVVILAGYPEGMDRLLGANPGLSSRFTTRVDFPSYRPLELTSIGEVLAAENGDVWDEEALDELRSIAGHVVDQGWIDELGNGRFLRTLYEKSCAYRDLRLSVYPGALTRDDLATLRLPDLMQAYGEVLSGRGPGGPSAG | failed
2 | MIDEKFLIESNELVESSKIVMVGTNGENGYPNIKAMMRLKHDGLKKFWLSTNTSTRMVERLKKNNKICLYFVDDNKFAGLMLVGTIEILHDRASKEMLWTDGCEIYYPLGIDDPDYTALCFTAEWGNYYRHLKNITFKIDEIYNY | not failed
3 | NAMVLREDIDKLKLLAQQFEQELQAYNTRIGNLETRIAYLEDRQFSVTTKLTGDSIWVLSGVGGSEQADGPPDQPVQNGEVTVNFRQRINFNTSFSGEDNLLIRLQSANFFLARGGSNLTDFNFAATEEQGNVNINKMQYSFPVGDRARIWLAGNRITMDDIMDPLAPYTNSFTDGAVSFFGAIAPIYLPNDNSGPGAGFSYNFTDDLSLGGFYSAGKGFSPNQSEGLFNGQFGVGAQLNYVPAANTGVAFSYLHNYIPQGQYDSFSALGYTGLANTDNPFDDAASSTNHYAVIWTWQLADWFSLEGWGMYSDATAKSGDRQGDTADIWNWKVSLAFPDLGKEGNVGVVSVGQPPYASFISNNNNVPDITPATTDAPWFVETFYLYQFNDNISLTPAFWIGINPANGRDPLWVAALRTSFKF | failed
4 | IEGLFIFDRNQKCVYANHIALNLFGYTLEEVHSKSILDFIALGFRNKVKRFSQNRDQPPYEVLGIKNDGSLFPIMIRGKAIELG | failed
5 | MRAASTSKPVGAHEETGHLGGAHSTYVSSAQVTNAEHENELQVVDLPRAPPSLSKAVTYFYITGFGRFALMEDNPTERVVLRLREILQDPGRVQMLHERLVRIVDLRILEVSAAAAHETLAEMKTQCLQMRQKPNISSDGRNRTVCFLHLGVDASADGFLVERSAVNEALFRFPDERGWQPTTPIPIVRGAQLGARYELDGEALASLCERTESLLNEWGRTNWTVRVNDDAGRFLCNYLFYLSAFEGLAENGHHLWQTFFLHCPMETVAPLDVQVDVVLAFMVAVAQSNAQQGPLEGILAR | not failed
6 | MSTTLLRTIQLNQFSLLGTSLLRRRRSNNFSVRSCGSQTTTTHEAKQSSPTRVAPKNHKSNQLDEILRDYEAVIGIETHVQLSTLTKAFCSCSNNYGSYPNTSICPVCMGLPGALPVLNSKVVEFGVRLGLALNCDLSLKSKFDRKQYFYPDLPKGYQISQFDIPIASGGYVDVDIPLEFGGGHRRFGITRVHMEEDAGKLLHSDTGDYSQVDLNRAGVPLLEIVSEPDMRSGIEAAEYACEMQRIARYLGVSNGNMQEGSLRCDVNISIRPIGQAEFGTKVEIKNLNAFSAISRAIDFEISRQALLYNQGKADQIVTETRLWEEGAQKTVTMRKKEGLADYRYFPEPDLPEVILTQEYVDSIRASLPELPEAKRRRYEAMGLGMQDVLFLANDVSVAEYFDAVIGKGAEVKLAANWIMSDIAAYLKNEKLSINDIKLTPQELAELIAAIKDGTISGKIGKEILFELLAKGGTVKGMIKAKDLVQITDPAEIEKMVIQVVSENPKQLEQYRSGKTKLQGYFAGQVMKMSKGKANPGLLNKILLEKLNAKD | failed
7 | MLTHREYFNSKADIWDSLCAPEEKAKLETIIRGLNIAPGSTVLDVGCGTGILIPYLLAAVGPAGRIVALDIAEAMLERAQSKGFPANVEFICADVVSVPYPDATFDEVICNSAFPHFPHKLKALKEMARVLKPGGRVVICHTKARETINNLHRSLGGVIAGDQIPPGSEMMGMLVAAGLTGIEIDEALDYYLASGFKAMYE | failed
8 | MERIIQQTDYDALSCKLAAISVGYLPSSGLQRLSVDLSKKYTEWHRSYLITLKKFSRRAFGKVDKAMRSSFPVMNYGTYLRTVGIDAAILEFLVANEKVQVVNLGCGSDLRMLPLLQMFPHLAYVDIDYNESVELKNSILRESEILRISLGLSKEDTAKSPFLIDQGRYKLAACDLNDITETTRLLDVCTKREIPTIVISECLLCYMHNNESQLLINTIMSKFSHGLWISYDPIGGSQPNDRFGAIMQSNLKESRNLEMPTLMTYNSKEKYASRWSAAPNVIVNDMWEIFNAQIPESERKRLRSLQFLDELEELKVMQTHYILMKAQW | not failed
9 | MSVEKKVNDLLQKMTIEEKVYQLTSILIQDILENDKFSPQKAKEKIPHGIGQITRLAGASNLSPQEAAKTANEIQKFLIENTRLGIPAMIHEESCSGFMAKGATVFPQSIGVACTFDNEIVEELAKVIRTQMKAVGAHQALAPLIDVARDARWGRVEETFGEDPYLVANMAVSYVKGLQGDDIKKGIVATGKHFVGYAMSEGGMNWAPVHIPERELREVYLYPFEVAVKVAGLKSIMPAYHEIDGIPCHANRKLLTDIARNEWGFDGIYVSDYSGVRNLLDYHKSVKTYEEAAALSLWAGLDIELPKIECFTEEFIKALKEGKFDMTLVDAAVKRVLEMKFRLGLFDNPYIKTDGIVELFDNKEQRQLSRRVAQESMVLLKNDNFLPLSKDSKKIAVIGPNANSVRNLLGDYSYPAHIATLEMFFIKEDKGVGNEEEFVRNVINMKSIFEAIKDKVSSNTEVVYAKGCDVNSQDRSGFEEAKKAAADADAVILVVGDKAGLRLDCTSGESRDRASLRLPGVQEDLVKEIVSVNPNTVVVLVNGRPVALDWIMENVKAVLEAWFPGEEGANAVADVLFGDYNPGGKLAISFPRDVGQVPVYYGHKPSGGKSCWHGDYVEMSTKPLLPFGYGLSYTTFEYKNFAIEKEKIGMDESIKISVEIENTGKYEGDEIVQLYTRKEEYLVTRPVKELKGYKRVHLKPGEKKKVVFELYPDLFAFYDYDMNRVVTPGVVEVMIGASSEDIKFTGTFEIVGSKKDAKELKHYFSKVWCE | failed
10 | MFRSFPVDSPHVYLRWVAISISQPVIRHGSSVVFVGGTPASSFLWPLCINRQNQIQTHFLKSFRIQEFLPRKSQCSRVTTIKETIFYPICLKSSKQIIVNATTFQCINYLLPIQFAYRNEPFRKFFATRIDFSSNQIERTNHSNRI | failed
11 | MDLHSLCVDSHALRRDGMRFLHTADWQLGMTRHFLAGDAQPRYSAARRDAVAGLKALAADVGAEFVVVAGDVFEHNQLAPQIVGQSLEAMRVIGLPVYLLPGNHDPLDASSVYTSTLFRAERPDNVVVLDRAGVHEVRPGVQIVAAPWRSKAPTTDPVAEVLAGLPTDAAIRLLVAHGGVDALDPDHDKPSLIRLAALDDALTRQAIHYVALGDKHSLTQVGSSGRVWYSGAPEVTNFDDVEPDPGHVLVVDIDESDPRHPVTVDARRIGRWRFVTLHHQVDTSRDIADLDLNLDLMTDKDRTVVRLALTGSLTVTDRAALDTCLDKYARLFAWLGLWERHTDLAVIPVDAEFTDLGIGGFAAAAVDELVATARGGDDESAVDAQAALALLLRLADRGAALEHHHHHH | failed
12 | MEDKAVSPIIATILLIAITVALAATFYTEVTPYFTEAQYYTPQAVTDVMNVSNGSSFSYDIYIQFFPANLTASQVEISLHVGSSYEYINLKMLSPFGKTTLNNGSITISQYPSAGYFTQGLIFVINSTLPLHSIIFVDLKTSSSINTVSI | failed
13 | MASTAVSELVFFIVTLLITASAVAVLSDQTIHIVYGMQSSSQRTTDMIQENFAIINNPDQIPYDNGYVFYIKNTGSVGFAFDNTSISVLVDGSAVTGKYVKFISLENSSILVPGQVGEIVVNETLSGYNSITISLGTGVSHTFNFEV | failed
14 | MNPLARFLALAGFTVALASCQMFTPPEVQESGFQPSDRPITVDNVGANNKLAELAKAQHPRILATYGGEYSDPKLERMVAKVVGNLTVVSANPTQTYRITILNSPNVNAFALPGGYLYITRGLLALANDSSELAAVIAHEMGHVTANHGLQRQQLEAEEGLATKVVSDVLGDSPTAKAALIRGKLRLAQFSRNQELEADAIGIKSIGEAGYDPYAAGRFLQSMSAYTDFRSISGATDASLDFLATHPNTPQRIDLAQRHARQFGAPGVGTRDRDSFLAGIDGLLYGDTPEEGYVRGETFLHPGLGVSFTVPDGFIIDNSAAAVTATGPGDIAIRFDGVSIDKNRALTDYIRSGWVAGLDDSTVKQETINGNEAATAHAGAEGWQFDIAVIRAGGQVYRLLTAAPSASTSLETVARSVSGSFRVLSAAEKAALKPLHIRVLTVQPGQTMGSLAAQMVGVDRKLDLFRVLNALSPGAAVSAGDKVKIVTDK | failed
15 | MRNKKLIPFEVIEKAVAGEPEAIELVLQHYSPRIKYLSKYRGYINDDIQDRLKTQLIKAILQFRFDR | failed
16 | MVKMAKMANKFKELDRTAEEKYKKGRISFRVGRFEDALAAYGEAASAWKEMADLLFDKGKETRGKEFLEKARDAKSCYGMALFKLERYEEALEIVDADLKLKPENPTRWSNRGFVLSALGRNEEALEAFEKALAFDPKSPKILTSQGIVYFKMGFLKKSLETFDRALATEPRKASDWACKIPRFSFFSRNKAPIMKPDNIETWYWKGNVLLELGEKEKALNSFRKALESDPDHLNSLLSGGDLLCEFAEYGEAFKCYVRALKLSPGNEAAEKGKEFCEAKINE | failed
17 | MLIDPIELYRYPEKWIKDRDAEKKVRSGLYILTEDGYLRRGITTGTTASAAAVAAIASLKEKVEKVKVSTPAGVDVEVEVEAEKGFARVRKFSGDHEFDVTNGIIFEAEVCETSGIFFGRGVGVKAGEKAVSRSAKLQILENFIKASREFNFSGGVRISVPDGEEVAKKTGNEKVGIKGGISILGTTGFVEPWCKKLVETKLKIAMQYHRIAITTGRKAWLYARKKFPEYQPFVFGVHIDEALKHPGEKIIVGFPGLLKIWAGSRDRIEERAREEGVRVVVIEDDMDSWVWDVQGTDH | not failed
18 | MGLPAHHIDAFLDRLRTAHYSEVSLRKKRRVLCAFSGWMKHRNIDLIDLDESVTARFMKRMIDASRDRVQRARPTLRQFLAYLRAEAIVCSPTLGSQSAIAHTYRRYLDYLRQDRGLAKNSLLVYGPFIRDFLDSHSAGDGSLLPDAFDAVTIRNHLLARSKGRSAEYTRLMAVALRSFCHFLFLRGDTARDLAGSVPSVRKWRQSTVPTFLTPEQQEALIASADRSTPTGLRDYAILLLLARLGLRAGEIIEIELDDIHWRSGELVVHGKGQMVEHVPLSSEVGAAIATYLRDGRGASASRRVFLRRLAPRVGLAGPAAIGKIVCQAFARVGFRPACRGAAHLFRHGLATTMIRHGASMAEIAEVLRHRSPDSTAIYAKVAFEDLRGVARSWPTAGGAILEHHHHHH | not failed
19 | MFKSPENDSLVSAVFDSSPIGIQIIDLETGMREKINQTACVLLGDTKDNLMAKSVFEDCTWLGKDKFLFVIERLKENKTLKNHIVQFENHQGNELTISYDISEFKYRSKRLVTVSMNDVT | failed
20 | MFGGIENVKAAEPKVYQFDFGSGSMEPGYIGVRASDRYDRSKGYGFQTPENMRDVAASGAGVKSDAVEFLAYGTKSNNTFNVDLPNGLYEVKVTLGNTARASVAAEGVFQVINMTGDGAEDTFQIPVTDGQLNLLVTEGKAGTAFTLSALKIKKLSDQPVTNRTIYVGGDSTVCNYYPLNSSKQAGWGQMLPHYIDKHTFQVRNMASGGQIARGFRNDGQLEAILKYIKPGDYFMLQLGINDTNPKHKESEAEFKEVMRDMIRQVKAKGADVILSTPQGRATDFTSEGIHSSVNRWYRASILALAEEEKTYLIDLNVLSSAYFTSIGPERTLGLYMDGDTLHPNRAGADALARLAVQELKRQGIAGFLEHHHHHH | not failed
